Values quoted from earlier work, collected in PMC3726680.

Target: HER2 (Homo sapiens) (UniProt P04626)

In the case of trastuzumab, the Kd is listed as 0.1 nM.
